Source: the supplement of paper PMC6757056
± gives the standard deviation of the averaged measurements.

B1: library; a variant is named by its letters at N, in order (parent)
chain: GCUGUCACCGGUGCUUGGUACGUUAUAUUCAGCCGGUCUGAUGAGUCUNNNNNNAGACGAAACAGC

How the values were obtained:
[1] = variants of: B1; assay: normalized RNA/DNA level without ligand (relative to sTRSVctl = 100) (log10 (% of sTRSVctl)); HEK293T overexpressing SLC46A1; higher = less ribozyme self-cleavage, higher mRNA level; conditions: without (6R,S)-folinic acid; ligand present: no
Method in brief: (§1)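 Library plasmids encoding reporter-linked ribozyme switches (mCherry, or eGFP for some folinic acid experiments) were transfected into HEK293T at 4 µg per 6-well well. Ligand, when used, was added 1 h before transfection. Total RNA was extracted with EDTA 72 h later, then reverse-transcribed, amplified, barcoded and sequenced. RNA level was RNA reads over DNA reads, divided by a spiked-in non-cleaving control (or the top 25 sequences), ×100, log10; only sequences with ≥100 DNA reads were kept.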

[2] = variants of: B1; assay: normalized RNA/DNA level with ligand (relative to sTRSVctl = 100) (log10 (% of sTRSVctl)); HEK293T overexpressing SLC46A1; ligand concentration (+) RNA-Seq: 6 mM; higher = less ribozyme self-cleavage, higher mRNA level; conditions: with (6R,S)-folinic acid; ligand present: yes
Method in brief: as §1

Variant	normalized RNA/DNA level without ligand (log10) [1]	normalized RNA/DNA level with ligand (log10) [2]
CCUAGA	2.05 ± 0.016	2.05 ± 0.046
CGCGAU	1.939 ± 0.0057	1.97 ± 0.041
CUGGGG	1.871 ± 0.005	2.007 ± 0.0051
GGCCUG	2.064 ± 0.015	2.03 ± 0.085
AGAGAU	1.982 ± 0.011	1.99 ± 0.023
CAGAAC	2.003 ± 0.0049	2.02 ± 0.056
GUGGAA	1.915 ± 0.0022	2.01 ± 0.048
UCUACU	2.019 ± 0.0065	2.03 ± 0.029
CGUUAU	1.977 ± 0.0039	2.005 ± 0.016
GCCUUC	2.05 ± 0.042	2.062 ± 0.012
AGAAUC	2.0639 ± 0.001	2.05 ± 0.033
UCUUCA	2.028 ± 0.0079	2.04 ± 0.046
UCGCGG	2.067 ± 0.0045	2.084 ± 0.02
CCUUUU	2.031 ± 0.0026	2 ± 0.027
UCAAAG	1.817 ± 0.0038	1.98 ± 0.032
GGGGAC	1.995 ± 0.013	2.029 ± 0.012
CCCGCG	2.09 ± 0.023	2.01 ± 0.034
CCCGCC	2.0796 ± 0.00065	2.05 ± 0.03
UUGACC	2.04 ± 0.0038	2.04 ± 0.032
ACUUCU	2.031 ± 0.0021	1.99 ± 0.059
ACUUCA	2.01 ± 0.03	2 ± 0.04
AGUAAU	1.99 ± 0.02	2 ± 0.026
CUGAAU	1.96 ± 0.003	1.99 ± 0.045
CUGAAC	1.99 ± 0.035	1.99 ± 0.024
AUCCUU	2.004 ± 0.01	2.02 ± 0.032
AGCGAU	1.982 ± 0.0033	2 ± 0.028
CCGAAC	2.035 ± 0.0081	2.02 ± 0.049
CACGCC	2.041 ± 0.011	1.99 ± 0.047
CACAUU	2.02 ± 0.026	2.02 ± 0.059
